Test results from paper PMC9825171 (Nucleic Acids Research, 2022).

What was measured:
Test in all cases: ITC
[1] = biological target: T1, human L3MBTL3 fragment 1–523 (human, UniProt Q96JM7-2 1-523)
T1 sequence (looked up): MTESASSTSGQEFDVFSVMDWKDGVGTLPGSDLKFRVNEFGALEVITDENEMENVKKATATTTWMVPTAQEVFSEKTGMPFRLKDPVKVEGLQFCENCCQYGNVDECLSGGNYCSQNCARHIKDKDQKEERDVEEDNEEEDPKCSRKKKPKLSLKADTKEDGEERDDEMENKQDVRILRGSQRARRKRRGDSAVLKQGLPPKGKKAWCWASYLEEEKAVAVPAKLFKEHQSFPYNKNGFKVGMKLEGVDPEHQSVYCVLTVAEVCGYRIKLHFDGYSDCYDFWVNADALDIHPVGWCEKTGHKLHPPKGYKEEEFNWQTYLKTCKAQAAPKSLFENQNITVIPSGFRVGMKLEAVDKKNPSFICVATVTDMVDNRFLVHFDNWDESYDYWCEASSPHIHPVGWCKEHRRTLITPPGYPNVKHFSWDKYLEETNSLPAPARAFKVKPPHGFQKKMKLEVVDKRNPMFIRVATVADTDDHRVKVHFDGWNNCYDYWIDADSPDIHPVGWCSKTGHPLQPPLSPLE

RBPJ (53–474) E260A [2] = biological target: T2, RBPJ (53–474) E260A (Mus musculus, UniProt P31266 53-474, E260A)
T2 sequence (P31266 53-474 E260A): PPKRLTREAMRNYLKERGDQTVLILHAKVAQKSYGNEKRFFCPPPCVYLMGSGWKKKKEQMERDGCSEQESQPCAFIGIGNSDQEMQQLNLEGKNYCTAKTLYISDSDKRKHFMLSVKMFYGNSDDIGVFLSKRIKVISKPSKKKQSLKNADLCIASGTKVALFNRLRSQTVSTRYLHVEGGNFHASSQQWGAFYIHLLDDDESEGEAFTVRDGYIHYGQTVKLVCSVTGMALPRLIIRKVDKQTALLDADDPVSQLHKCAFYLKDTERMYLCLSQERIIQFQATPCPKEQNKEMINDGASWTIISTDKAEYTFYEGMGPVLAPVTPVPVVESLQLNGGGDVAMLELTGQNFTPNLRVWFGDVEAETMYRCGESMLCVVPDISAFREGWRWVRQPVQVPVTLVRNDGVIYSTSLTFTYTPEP

RBPJ (53–474) E260K = RBPJ (53–474) E260K (Mus musculus, UniProt P31266 53-474, E260K)
Chain of RBPJ (53–474) E260K (P31266 53-474 E260K): as the sequence (P31266 53-474 E260A) above, with A208K counted along it

RBPJ (53–474) V263A = RBPJ (53–474) V263A (Mus musculus, UniProt P31266 53-474, V263A)
Chain of RBPJ (53–474) V263A (P31266 53-474 V263A): as the sequence (P31266 53-474 E260A) above, with A208E, V211A counted along it

RBPJ (53–474) Q333A = RBPJ (53–474) Q333A (Mus musculus, UniProt P31266 53-474, Q333A)
Chain of RBPJ (53–474) Q333A (P31266 53-474 Q333A): as the sequence (P31266 53-474 E260A) above, with A208E, Q281A counted along it

RBPJ (53–474) E260A [3] = biological target: T2, RBPJ (53–474) E260A; remark: listed apart in the source
RBPJ (53–474) K275M = RBPJ (53–474) K275M (Mus musculus, UniProt P31266 53-474, K275M)
Chain of RBPJ (53–474) K275M (P31266 53-474 K275M): as the sequence (P31266 53-474 E260A) above, with A208E, K223M counted along it

B1: Mus musculus CSL (RBPJ), residues 53–474 (structural core domain), wild type, as used for ITC (domain or fragment)
chain: not shown
[1]
  Ka: 540000 M⁻¹
  Kd: 1900 nM

B2: L3MBTL3 (52–70) wild-type peptide (19-mer) (peptide, UniProt Q96JM7-2 52-70, looked up)
peptide: MENVKKATATTTWMVPTAQ
RBPJ (53–474) E260A [2]
  Kd: 3730 nM
RBPJ (53–474) E260K
  Ka: 220000 M⁻¹
  dH: -16.8 kcal/mol
RBPJ (53–474) V263A
  Ka: 330000 M⁻¹
  Kd: 3000 nM
  dH: -10.3 kcal/mol
RBPJ (53–474) Q333A
  Ka: 760000 M⁻¹
  Kd: 1300 nM
  dH: -10.6 kcal/mol
RBPJ (53–474) E260A [3]
  Ka: 260000 M⁻¹
  dH: -13.6 kcal/mol
RBPJ (53–474) K275M
  Ka: 240000 M⁻¹
  Kd: 4200 nM
  dH: -13.7 kcal/mol
